Results as given in the supplement of paper PMC9116672.
± gives the standard deviation of the averaged measurements or the uncertainty stated by the source.

Assays:
[1] = duplex melting temperature (HRM, EvaGreen); higher = more stable duplex
Experimental: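 Listed DNA strand annealed 1:1 with its complementary strand (95 °C 5 min, 0.1 °C/s to 20 °C). Melted in 1x NNE buffer (500 mM NaCl, 10 mM Na2HPO4, 1 mM EDTA, pH 7.0) with 1x EvaGreen on a LightCycler96 (37 to 97 °C, 0.1 °C/s). Tm is the peak of -dF/dT at the stated total duplex concentration; 4 replicates are averaged. PS oligos are non-stereospecific (Rp/Sp mixtures).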

[2] = duplex formation enthalpy ΔH (Van't Hoff fit of HRM Tm); higher = less exothermic duplex formation; details: temperature for dG: 50 °C, NaCl: 500 mM (unadjusted)
Experimental: (§1)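 Duplex of the listed DNA strand with its complement, in 1x NNE buffer (500 mM NaCl, pH 7.0) with 1x EvaGreen. ΔH and ΔS come from a Van't Hoff linear fit of 1/Tm against ln(CT/4) over 1-20 uM, using HRM Tm values.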

[3] = duplex formation free energy ΔG50 (Van't Hoff fit of HRM Tm); higher = less stable duplex; details: temperature for dG: 50 °C, NaCl: 500 mM (unadjusted)
Experimental: as §1

[4] = duplex formation entropy ΔS (Van't Hoff fit of HRM Tm); higher = smaller entropy loss on duplex formation; details: temperature for dG: 50 °C, NaCl: 500 mM (unadjusted)
Experimental: as §1

[5] = duplex concentration 1 µM, backbone: PO-PO (both strands phosphodiester DNA)
[6] = duplex concentration 1 µM, backbone: PS-PS (both strands fully phosphorothioate)
[7] = duplex concentration 2.5 µM, backbone: PO-PO (both strands phosphodiester DNA)
[8] = duplex concentration 2.5 µM, backbone: PS-PO (listed strand fully phosphorothioate, complement phosphodiester)
[9] = duplex concentration 2.5 µM, backbone: PS-PS (both strands fully phosphorothioate)
[10] = duplex concentration 5 µM, backbone: PO-PO (both strands phosphodiester DNA)
[11] = duplex concentration 5 µM, backbone: PS-PO (listed strand fully phosphorothioate, complement phosphodiester)
[12] = duplex concentration 5 µM, backbone: PS-PS (both strands fully phosphorothioate)
[13] = duplex concentration 7.5 µM, backbone: PO-PO (both strands phosphodiester DNA)
[14] = duplex concentration 7.5 µM, backbone: PS-PO (listed strand fully phosphorothioate, complement phosphodiester)
[15] = duplex concentration 7.5 µM, backbone: PS-PS (both strands fully phosphorothioate)
[16] = duplex concentration 10 µM, backbone: PO-PO (both strands phosphodiester DNA)
[17] = duplex concentration 10 µM, backbone: PS-PO (listed strand fully phosphorothioate, complement phosphodiester)
[18] = duplex concentration 10 µM, backbone: PS-PS (both strands fully phosphorothioate)
[19] = duplex concentration 15 µM, backbone: PO-PO (both strands phosphodiester DNA)
[20] = duplex concentration 15 µM, backbone: PS-PO (listed strand fully phosphorothioate, complement phosphodiester)
[21] = duplex concentration 15 µM, backbone: PS-PS (both strands fully phosphorothioate)
[22] = duplex concentration 20 µM, backbone: PO-PO (both strands phosphodiester DNA)
[23] = duplex concentration 20 µM, backbone: PS-PO (listed strand fully phosphorothioate, complement phosphodiester)
[24] = duplex concentration 20 µM, backbone: PS-PS (both strands fully phosphorothioate)
[25] = backbone: PO-PO (both strands phosphodiester DNA)
[26] = backbone: PS-PO (listed strand fully phosphorothioate, complement phosphodiester)
[27] = backbone: PS-PS (both strands fully phosphorothioate)
[28] = duplex concentration 1 µM, backbone: PS-PO (listed strand fully phosphorothioate, complement phosphodiester)

Sequence	duplex melting temperature [1, 5] [°C]	duplex melting temperature [1, 6] [°C]	duplex melting temperature [1, 7] [°C]	duplex melting temperature [1, 8] [°C]	duplex melting temperature [1, 9] [°C]	duplex melting temperature [1, 10] [°C]	duplex melting temperature [1, 11] [°C]	duplex melting temperature [1, 12] [°C]	duplex melting temperature [1, 13] [°C]	duplex melting temperature [1, 14] [°C]	duplex melting temperature [1, 15] [°C]	duplex melting temperature [1, 16] [°C]	duplex melting temperature [1, 17] [°C]	duplex melting temperature [1, 18] [°C]	duplex melting temperature [1, 19] [°C]	duplex melting temperature [1, 20] [°C]	duplex melting temperature [1, 21] [°C]	duplex melting temperature [1, 22] [°C]	duplex melting temperature [1, 23] [°C]	duplex melting temperature [1, 24] [°C]	duplex formation enthalpy ΔH [2, 25] [kcal/mol]	duplex formation enthalpy ΔH [2, 26] [kcal/mol]	duplex formation enthalpy ΔH [2, 27] [kcal/mol]	duplex formation free energy ΔG50 [3, 25] [kcal/mol]	duplex formation free energy ΔG50 [3, 26] [kcal/mol]	duplex formation free energy ΔG50 [3, 27] [kcal/mol]	duplex formation entropy ΔS [4, 25] [cal/mol/K]	duplex formation entropy ΔS [4, 26] [cal/mol/K]	duplex formation entropy ΔS [4, 27] [cal/mol/K]	duplex melting temperature [1, 28] [°C]
TTGAAAACCCATGTGC	60.23 ± 0.095	44.39 ± 0.2	62.8 ± 0.81	56.79 ± 0.24	47.54 ± 0.18	64.91 ± 0.47	59.35 ± 0.12	49.47 ± 0.39	66.29 ± 0.13	60.57 ± 0.15	50.5 ± 0.34	67.33 ± 0.16	61.45 ± 0.1	51.45 ± 0.23	68.7 ± 0.13	62.67 ± 0.086	52.45 ± 0.36	69.66 ± 0.17	63.58 ± 0.29	53.33 ± 0.26	-69.1 ± 1.7	-68.7 ± 2.4	-69.7 ± 2.8	-11.8 ± 0.082	-10.62 ± 0.078	-8.581 ± 0.024	-177 ± 5	-180 ± 7.1	-189 ± 8.7	–
CGATTTTGTCAAGCCT	64.1	45 ± 0.64	64.84 ± 0.3	55.56 ± 0.073	48.27 ± 0.26	66.53 ± 0.27	57.82 ± 0.17	50.1 ± 0.15	67.75 ± 0.37	58.86 ± 0.14	51.53 ± 0.24	68.64 ± 0.33	59.74 ± 0.12	52.43 ± 0.088	70.02 ± 0.072	60.94 ± 0.033	53.55 ± 0.096	70.68 ± 0.17	61.81 ± 0.11	54.55 ± 0.15	–	-74 ± 2.7	-66.5 ± 1.8	–	-10.45 ± 0.08	-8.766 ± 0.018	–	-197 ± 8.1	-179 ± 5.5	52.6
CTCAGAGTAGAGCCGA	63.68 ± 0.069	49.9 ± 1.1	65.7 ± 0.74	60.75 ± 0.31	53.32 ± 0.14	68.22 ± 0.15	63.08 ± 0.2	55.65 ± 0.051	69.47 ± 0.26	64.34 ± 0.11	56.75 ± 0.12	70.41 ± 0.2	65.17 ± 0.17	57.39 ± 0.097	71.91 ± 0.23	66.49 ± 0.15	58.63 ± 0.12	72.85 ± 0.2	67.47 ± 0.082	59.42 ± 0.24	-70.2 ± 2.2	-70.4 ± 1.1	-68.5 ± 2.8	-12.5 ± 0.13	-11.45 ± 0.047	-9.827 ± 0.057	-179 ± 6.5	-183 ± 3.4	-182 ± 8.6	57.92 ± 0.21
CTACCAGCGGCGCCGTT	–	63.52 ± 0.26	78.66 ± 0.28	71.69 ± 0.5	66.46 ± 0.23	80.52 ± 0.35	74.62 ± 0.28	68.88 ± 0.19	81.81 ± 0.23	75.97 ± 0.31	70.02 ± 0.24	82.55 ± 0.18	76.92 ± 0.17	71 ± 0.18	83.52 ± 0.2	78.15 ± 0.26	72.23 ± 0.12	84.24 ± 0.2	79.05 ± 0.47	73.06 ± 0.32	-92.6 ± 4.5	-66.1 ± 2.3	-72.5 ± 1.8	-16.7 ± 0.4	-13.3 ± 0.16	-12.69 ± 0.1	-235 ± 13	-163 ± 6.5	-185 ± 5.4	68.2 ± 0.97
CCGTTGCTGCTAGG	–	45.8 ± 0.71	65.75 ± 0.21	59.6	49.3 ± 1.4	68 ± 0.31	61.1 ± 1	53.433 ± 0.0017	69.13 ± 0.18	63.1 ± 0.69	56	70.55 ± 0.22	63.92 ± 0.4	57.4	71.88 ± 0.22	65.35 ± 0.083	60.5	72.82 ± 0.098	65.77 ± 0.2	61.75 ± 0.28	-67.8 ± 4.5	-69.4 ± 7.8	-40.7 ± 2.5	-12.3 ± 0.25	-11.1 ± 0.33	-9.23 ± 0.051	-172 ± 13	-180 ± 23	-97.4 ± 7.7	–
GAACCGTTGATGATCTC	63.4	46.68 ± 0.22	65.33 ± 0.31	57.31 ± 0.16	49.91 ± 0.24	67.16 ± 0.13	59.39 ± 0.12	51.98 ± 0.084	68.29 ± 0.098	60.41 ± 0.13	53.01 ± 0.082	69.2 ± 0.096	61.285 ± 0.052	53.86 ± 0.097	70.38 ± 0.088	62.38 ± 0.1	54.9 ± 0.045	71.31 ± 0.079	63.117 ± 0.054	55.75 ± 0.06	-80.1 ± 1.6	-78.8 ± 1.7	-70.3 ± 2.3	-12.78 ± 0.09	-10.93 ± 0.053	-9.101 ± 0.027	-208 ± 4.8	-210 ± 5	-189 ± 7.2	54.79 ± 0.14
AGGAGTGAATGAAATGG	59.4	43.7 ± 0.16	62.1 ± 0.68	57.08 ± 0.11	46.44 ± 0.17	64.64 ± 0.23	59.096 ± 0.041	48.39 ± 0.29	65.704 ± 0.056	60.13 ± 0.11	49.32 ± 0.19	66.73 ± 0.088	61.02 ± 0.073	50.27 ± 0.12	68.03 ± 0.15	62.13 ± 0.11	51.3 ± 0.13	69.03 ± 0.084	62.93 ± 0.16	52.15 ± 0.22	-69.7 ± 2.4	-78 ± 1.6	-73.4 ± 2.2	-11.71 ± 0.11	-10.85 ± 0.05	-8.33 ± 0.02	-179 ± 7	-208 ± 4.8	-201 ± 6.7	54.5
CCACTAGCGGCGCCGTT	–	62.65 ± 0.14	78.31 ± 0.24	70.82 ± 0.38	65.52 ± 0.13	80.05 ± 0.14	73 ± 0.26	67.54 ± 0.18	81.18 ± 0.29	74.33 ± 0.2	68.59 ± 0.13	81.87 ± 0.19	75.285 ± 0.053	69.501 ± 0.06	83.03 ± 0.12	76.37 ± 0.18	70.49 ± 0.094	83.58 ± 0.28	77.3 ± 0.13	71.36 ± 0.16	-97 ± 4	-75.1 ± 2.5	-79.8 ± 1.8	-17 ± 0.36	-13.7 ± 0.17	-12.8 ± 0.097	-247 ± 11	-190 ± 7.2	-207 ± 5.3	67.57 ± 0.56
CACAGCGACATGTATGG	66.351 ± 0.017	51.1 ± 0.65	68.17 ± 0.38	61.71 ± 0.23	54.15 ± 0.059	70.03 ± 0.34	63.56 ± 0.32	56.02 ± 0.1	71.11 ± 0.17	64.61 ± 0.28	56.91 ± 0.12	72.07 ± 0.21	65.347 ± 0.065	57.68 ± 0.091	73.27 ± 0.14	66.45 ± 0.11	58.539 ± 0.051	74.18 ± 0.2	67.43 ± 0.1	59.3 ± 0.12	-84.1 ± 2.5	-83.1 ± 1.4	-80 ± 3.5	-13.7 ± 0.16	-12.06 ± 0.059	-10.12 ± 0.071	-218 ± 7.4	-220 ± 4.1	-216 ± 10	59.17 ± 0.49
GGTTGCGGTGGCCAAC	–	–	72.47 ± 0.19	–	–	74.78 ± 0.39	59.24 ± 0.17	–	75.96 ± 0.48	59.89 ± 0.26	53.12 ± 0.24	76.87 ± 0.44	60.61 ± 0.24	53.68 ± 0.31	77.98 ± 0.31	61.52 ± 0.21	54.3 ± 0.32	78.76 ± 0.29	62.17 ± 0.44	54.47 ± 0.31	-83.4 ± 4.7	–	–	-14.7 ± 0.36	–	–	-213 ± 13	–	–	–
